CN114426574A (WUHAN VIRUS INST OF CHINESE ACADEMY OF SCIENCES, dated 2022)

Molecular target: WH-RBD-TFc (SARS-CoV-2 spike glycoprotein receptor binding domain, thrombin site, human IgG1 Fc fusion) (SARS-CoV-2; human, UniProt P0DTC2 319-541)

Binder	EC50 [nM]
Fab F1-B5 (Fab, V domains shown) VH: EVQLVQSGGGVVQPGRSLRLSCAASGFTVSSNYMSWVRQAPGKGLEWVSVIYSGGSTYYADSVKGRFTISRDNSKNTLYLQMNSLRAEDTAVYYCARGDGSDDYYYGMDVWGQGTTVTVSS VL: QAVLTQPSSVSGAPGQRVTISCTGSSSNVGAGYDVHWYQQLPGTAPKLLIYGNSNRPSGVPDRFSGSKSGTSASLAITGLQAEDEADYYCQSYDSSLSGSVFGGGTKLTVLG	63
Fab F1-B3 (Fab, V domains shown) VH: QVQLQESGGGLVQPGGSLRLSCAASGFTVSSNYMSWVRQAPGEGLEWVSSISSSSSYIYYADSVKGRFTISRDNAKNSLYLQMNSLRAEDTAVYYCARGKWLRGAFDIWGQGTTVTVSS VL: NFMLTQPHSMSESPGKTVTISCTGSSGSIANNYVQWYRQRPGSAPITVIYEDNQRPSGVPDRFSGSIDSSSNSASLTISGLKTEDEADYYCQSYDSSTHWVFGGGTKLTVLG	12
